For series [1], the target named is Recombinant H1 HA with His Tag from Influenza A/Brisbane/59/2007 H1N1. As to the kind of experiment: SPR. Particulars: read off a plot.
In series [2] the target is T1, HA Ig (extracellular part of the HA protein of PR8 influenza fused to human IgG1), biotin-conjugated (influenza A/Puerto Rico/8/34 H1N1 (PR8), UniProt P03452 18-528, biotin).
T1 construct: also called biotinylated HA Ig
Put plainly: far-Western, overlay or dot blot. Particulars: both partners purified.

Series [3] can be described thus: FACS surface staining of BW transfectants. To be noted: glycan lost; control: WT Ncr1 zeta.
The nature of series [4]: full-length expression in HEK 293T (data not shown). Particulars: glycan lost; control: WT full-length Ncr1.
Series [5] in a line: recognition of fusion proteins by eight anti-Ncr1 mAbs. To be noted: glycan lost; control: WT Ncr1 Ig.
The nature of series [6]: FACS, lentiviral expression in IL2-activated human NK cells. To be noted: glycan lost; control: WT full-length Ncr1. Background: Flow cytometry measures light scatter and fluorescence of single cells or particles in a stream.

In the case of “Ncr1 Ig fusion protein (extracellular part of mouse Ncr1 fused to human IgG1) (from UniProt Q8C567) T222A; T225A”, the response was found to be 35 RU in series [1] (parent: est. 190), 85 RU in series [1] (parent: est. 380), 150 RU in series [1] (parent: est. 560) and 210 RU in series [1] (parent: est. 700).

B1: Ncr1 Ig fusion protein (extracellular part of mouse Ncr1 fused to human IgG1) (Fc fusion, UniProt Q8C567 17-255, looked up)
chain: QRINTEKETLPKPIIWAKPSIMVTNGNSVNIWCQGAQSASEYQLYFEGSFFALERPKPSRSMNKVRFFISQMTSHTAGIYTCFYQSGELWSKSSNPLKLVVTGLYDTPNLWVYPRPEVTLGENVTFFCQLKTATSKFFLLKERGSNHIQNKYGNIQAEFPMGPVTRAHRGTYRCFGSYNDYAWSFPSEPVTLLITGGVENSSLAPTDPTSSLDYWEFDLSTNESGLQKDSAFWDHTTQN
notes: Carries N-linked glycans (N139, N216, N238) and putative O-linked glycans (T222, T225); also called WT Ncr1 Ig; WT Ncr1
As to B1, the binding result in series [2] was “binds”.

B2: Ncr1: Ncr1 T222A (protein)
parent chain: MLPTLTALLCLGLCLSQRINTEKETLPKPIIWAKPSIMVTNGNSVNIWCQGAQSASEYQLYFEGSFFALERPKPSRSMNKVRFFISQMTSHTAGIYTCFYQSGELWSKSSNPLKLVVTGLYDTPNLWVYPRPEVTLGENVTFFCQLKTATSKFFLLKERGSNHIQNKYGNIQAEFPMGPVTRAHRGTYRCFGSYNDYAWSFPSEPVTLLITGGVENSSLAPTDPTSSLDYWEFDLSTNESGLQKDSAFWDHTTQNLIRIGLACIILITLVWLLTEDWLSKRKDHEEANRLTNWECRRRWRMQHYFEEEQRNAISMMELKATPGAL
Take B2: the expression_or_secretion result in series [3] was “no change”. For the same molecule, the localisation_or_trafficking entry in series [4] is listed as “no change”. Also, the stability_or_folding entry in series [5] was “no change”.

B3: Ncr1: Ncr1 N139 216 238A (protein)
parent chain: B2 parent chain
Turning to B3, the results for the expression_or_secretion entry in series [6] and in series [3] were “abolishes” and “decreases”, respectively. Further, the localisation_or_trafficking entry in series [4] was “decreases”. Also, the stability_or_folding result in series [5] was “no change”.

B4: Ncr1: Ncr1 T222 225A (protein)
parent chain: B2 parent chain
B4: the expression_or_secretion entry in series [6] and in series [3] was “no change” each time. In series [4], the localisation_or_trafficking entry was “no change”. Further, the stability_or_folding result in series [5] is recorded as “no change”.

B5: Ncr1: Ncr1 T225A (protein)
parent chain: B2 parent chain
B5: the expression_or_secretion entry in series [3] is recorded as “no change”. Moreover, the localisation_or_trafficking entry in series [4] is listed as “no change”. Further, the stability_or_folding entry in series [5] was “no change”.

Source of the values: publication PMC4860851 (Cell Discovery, 2015).
